Values of other authors, collected in PMC11402941.
pKd: −log10 of the molar value.

What was measured:
VSIG3 (Homo sapiens) = VSIG3 (Homo sapiens) (UniProt Q5DX21)
PSGL-1 (Homo sapiens) = PSGL-1 (Homo sapiens) (UniProt Q14242)
UniProt Q14242, sequence (Q14242 42-320): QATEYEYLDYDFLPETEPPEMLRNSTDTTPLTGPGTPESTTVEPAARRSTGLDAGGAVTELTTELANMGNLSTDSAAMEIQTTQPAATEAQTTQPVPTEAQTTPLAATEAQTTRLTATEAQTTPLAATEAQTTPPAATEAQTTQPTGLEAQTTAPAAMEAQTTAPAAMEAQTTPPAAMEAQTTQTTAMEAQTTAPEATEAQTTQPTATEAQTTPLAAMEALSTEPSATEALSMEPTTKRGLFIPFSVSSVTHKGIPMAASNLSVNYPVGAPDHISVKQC

UniProt Q5DX21, sequence (Q5DX21 23-241): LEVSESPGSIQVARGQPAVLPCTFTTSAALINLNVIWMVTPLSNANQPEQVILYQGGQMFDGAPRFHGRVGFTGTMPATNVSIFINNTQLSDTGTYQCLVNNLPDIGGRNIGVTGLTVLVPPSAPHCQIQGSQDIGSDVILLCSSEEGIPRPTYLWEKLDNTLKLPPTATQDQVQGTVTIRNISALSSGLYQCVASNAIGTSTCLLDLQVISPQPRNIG

VISTA (from UniProt Q9H7M9)
pKd (VSIG3 (Homo sapiens)): 7.10
pKd (PSGL-1 (Homo sapiens)): 8.40
